Test results: PMC3829608 (Molecular cancer therapeutics, 2012)
“Also recorded” adds a separate entry of the source.

How the values were obtained:
EGFR [1] = target: T1, EGFR (Homo sapiens, UniProt P00533); experiment: Saturation binding assay on Gli36Δ5 cells
[2] = Live animal FMT imaging of orthotopic Gli36Δ5 brain tumors; format: in vivo, mice; details: mouse, in vivo, iv, 1 nmol/g
[3] = test system: Gli36Δ5 orthotopic brain tumors; experiment: as above; format: in vivo, mice; details: representative FMT 3-dimensional reconstruction, matching ROIs, 1 nmol/g
[4] = Live animal FMT imaging of orthotopic U87-MG brain tumors; format: in vivo, mice; details: mouse, in vivo, iv, 1 nmol/g
[5] = test system: U87-MG orthotopic brain tumors; experiment: as above; format: in vivo, mice; details: representative FMT 3-dimensional reconstruction, matching ROIs, 1 nmol/g
A431 cells = experiment: Uptake in A431 cells with EGF stimulation; format: cell-based, human; details: A431 cells in the presence of the EGF ligand
EGFR [6] = target: T1, EGFR; details: radioligand binding assays; cited from earlier work

Q: With “Cy5.5-(AEEA)2-YHWYGYTPQNVI-amide [Compound 3]” as the compound, how does the “Affinity for the cells (in words)” value (EGFR [1]) read?
A: micromolar range

Q: For CC[C@H](C)[C@H](NC(=O)[C@@H](NC(=O)[C@H](CC(N)=O)NC(=O)[C@H](CCC(N)=O)NC(=O)[C@@H]1CCCN1C(=O)[C@@H](NC(=O)[C@H](Cc1ccc(O)cc1)NC(=O)CNC(=O)[C@H](Cc1ccc(O)cc1)NC(=O)[C@H](Cc1c[nH]c2ccccc12)NC(=O)[C@H](Cc1c[nH]cn1)NC(=O)[C@H](Cc1ccc(O)cc1)NC(=O)COCCOCCNC(=O)CCCCCN1C(=CC=CC=CC2=[N+](CC)c3ccc4c(S(=O)(=O)[O-])cc(S(=O)(=O)O)cc4c3C2(C)C)C(C)(C)c2c1ccc1c(S(=O)(=O)O)cc(S(=O)(=O)O)cc21)[C@@H](C)O)C(C)C)C(N)=O [Compound 2], which tissue uptake dose at 1 h [2] is on record?
A: 1.1 %ID

Q: And the “Amount of fluorescence in ROI, Gli36Δ5” value [3]?
A: 9,271 nmol/L

Q: What about the tissue uptake dose at 1 h [4] of the same compound?
A: 0.27 %ID

Q: And the “Amount of fluorescence in ROI, U87-MG” value [5]?
A: 1,608 nmol/L

Q: And the “Uptake in A431 cells on stimulation with EGF” value (A431 cells)?
A: increasing fluorescence; also recorded: increased the level of uptake

Q: For YHWYGYTPQNVI [GE11], which “Binding affinity for EGFR (in words)” value (EGFR [6]) is on record?
A: nanomolar range

Q: For “Cy5.5-(AEEA)3-YHWYGYTPQNVI-amide [Compound 4]”, which “Affinity for the cells (in words)” value (EGFR [1]) is on record?
A: micromolar range

Q: Which “Affinity for the cells (in words)” value (EGFR [1]) does the source give for Cy5.5-YHWYGYTPQNVI-amide [Compound 1] here?
A: micromolar range
